Data on two proteins can be found in publication doi:10.1101/2022.11.10.515920 (bioRxiv, 2022).

The series concerns the molecule itself. Nature of the series: SEC.

B1: glucose oxidase expressed in BY-2 lysate (enzyme)
chain: LPHYIRSNGIEASLLTDPKDVSGRTVDYIIAGGGLTGLTTAARLTENPNISVLVIESGSYESDRGPIIEDLNAYGDIFGSSVDHAYETVELATNNQTALIRSGNGLGGSTLVNGGTWTRPHKAQVDSWETVFGNEGWNWDNVAAYSLQAERARAPNAKQIAAGHYFNASCHGVNGTVHAGPRDTGDDYSPIVKALMSAVEDRGVPTKKDFGCGDPHGVSMFPNTLHEDQVRSDAAREWLLPNYQRPNLQVLTGQYVGKVLLSQNGTTPRAVGVEFGTHKGNTHNVYAKHEVLLAAGSAVSPTILEYSGIGMKSILEPLGIDTVVDLPVGLNLQDQTTATVRSRITSAGAGQGQAAWFATFNETFGDYSEKAHELLNTKLEQWAEEAVARGGFHNTTALLIQYENYRDWIVNHNVAYSELFLDTAGVASFDVWDLLPFTRGYVHILDKDPYLHHFAYDPQYFLNELDLLGQAAATQLARNISNSGAMQTYFAGETIPGDNLAYDADLSAWTEYIPYHFRPNYHGVGTCSMMPKEMGGVVDNAARVYGVQGLRVIDGSIPPTQMSSHVMTVFYAMALKISDAILEDYASMQ
Turning to B1, the “stoichiometry N” value came out at 2.

B2: glucose oxidase, commercial standard purified from Aspergillus niger (enzyme)
chain: LPHYIRSNGIEASLLTDPKDVSGRTVDYIIAGGGLTGLTTAARLTENPNISVLVIESGSYESDRGPIIEDLNAYGDIFGSSVDHAYETVELATNNQTALIRSGNGLGGSTLVNGGTWTRPHKAQVDSWETVFGNEGWNWDNVAAYSLQAERARAPNAKQIAAGHYFNASCHGVNGTVHAGPRDTGDDYSPIVKALMSAVEDRGVPTKKDFGCGDPHGVSMFPNTLHEDQVRSDAAREWLLPNYQRPNLQVLTGQYVGKVLLSQNGTTPRAVGVEFGTHKGNTHNVYAKHEVLLAAGSAVSPTILEYSGIGMKSILEPLGIDTVVDLPVGLNLQDQTTATVRSRITSAGAGQGQAAWFATFNETFGDYSEKAHELLNTKLEQWAEEAVARGGFHNTTALLIQYENYRDWIVNHNVAYSELFLDTAGVASFDVWDLLPFTRGYVHILDKDPYLHHFAYDPQYFLNELDLLGQAAATQLARNISNSGAMQTYFAGETIPGDNLAYDADLSAWTEYIPYHFRPNYHGVGTCSMMPKEMGGVVDNAARVYGVQGLRVIDGSIPPTQMSSHVMTVFYAMALKISDAILEDYASMQ
With B2, the “stoichiometry N” value came out at 2.

In general, stoichiometry N refers to the number of molecules, sites or subunits per partner or assembly.
